Experimental data taken from the supplement of paper PMC10567573.

B1: FCHSD1 (parent)
chain: LQEPGVFSPTPPQQFQPAGTDQVC
B2: MMP1 (parent)
chain: FVRGDHRDNSPFDGPGGNLAHAFQ

Variants of: B1
Experiment: protein stability index of a GFP-peptide fusion (GPS, HEK-293T) (PSI 1-6); higher = more stable
Conditions: c terminus: a fixed tail appended
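Note: lentivirally expressed fusions sorted by FACS into six bins by GFP to DsRed ratio, PSI derived from sequencing read proportions per bin multiplied by bin number.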

Variant | protein stability index
F15G | 4.68
F15C | 4.17
Q22W | 2.94
P11A | 4.41
P11S | 3.73
P11D | 4.5
P11I | 4.04
P11Q | 4.26
P11M | 4.17
P11T | 4.31
P11H | 4.09
P11C | 2.16
P11K | 3.62
P11E | 4.69
P11G | 4.25
P11V | 4.43
P11W | 3.41
P11L | 3.89
P11N | 4.38
P11Y | 3.65
P11R | 3.9
P11F | 3.49
P12D | 5.07
P12L | 3.96

Variant | protein stability index
P12E | 4.82
P12Q | 4.45
P12N | 4.33
P12V | 3.69
P12G | 4.5
P12I | 4.11
P12Y | 3.66
P12W | 3.5
P12R | 4.33
P12F | 3.48
P12C | 4.02
P12K | 4.05
P12S | 4.46
P12H | 4.23
P12M | 4.09
Q14V | 4.1
Q14G | 2.86
T20L | 3.61
P9Q | 4.65
P9G | 4.38
P9V | 4.3
P9T | 4.69
P9K | 4.31
P9S | 4.14

Variant | protein stability index
P9W | 3.67
P9Y | 3.81
P9M | 4.38
P9C | 4.26
P9I | 4.03
P9A | 4.57
P9F | 4.14
P9L | 4.56
P9E | 4.7
P9R | 4.26
P9D | 4.69
P9H | 4.29
P9N | 4.04
A18W | 2.99
Q13G | 3.89
Q13F | 3.8
Q13D | 4.55
Q13M | 3.96
Q13Y | 3.74
Q13I | 3.6
Q13S | 4.16
Q13V | 4.26
Q13R | 4.07
Q13W | 3.17

Variant | protein stability index
Q13C | 4.04
Q13N | 4.11
Q13E | 3.75
Q13K | 3.78
T10G | 4.16
T10F | 3.5
T10M | 3.82
T10H | 4.17
T10R | 3.54
T10E | 4.38
T10I | 3.65
T10K | 4
T10N | 3.98
T10L | 4.16
T10Y | 3.38
T10A | 4.56
T10D | 4.67
T10V | 3.96
T10Q | 4.21
T10C | 3.52
T10W | 3.35
T10S | 4.34
Q16L | 3.93

Variants of: B2
Experiment: as above
Conditions: c terminus: a fixed tail appended

Variant | protein stability index
D8T | 2.28
D8A | 1.63
D8H | 2.29
D8C | 3.26
D8S | 2.08
D8P | 2.12
D8L | 2.25
D8N | 2.68
D8G | 1.84
D8I | 1.87
D8E | 1.31
D8R | 1.62
D8Q | 3.21
D8M | 3.46
D8W | 3.09
D8F | 4.46
D8V | 2.25
D8Y | 3.24
D8K | 2.78
P11V | 2.06
P11R | 2.4
P11W | 1.84
P11M | 1.6
P11N | 2.13

Variant | protein stability index
P11A | 1.81
P11E | 2.06
P11C | 2.61
P11H | 1.5
P11K | 1.78
P11S | 2.91
P11Q | 2.02
P11F | 1.83
P11G | 2.89
P11I | 1.7
P11L | 1.34
P11D | 2.79
P11Y | 2.04
P11T | 1.8
F1E | 3.97
F1A | 3.67
F1S | 3.33
F1P | 3.59
F1C | 2.64
F1Q | 4.01
F1Y | 1.81
F1H | 3.28
F1L | 3.52
F1I | 2.82

Variant | protein stability index
F1D | 4.41
F1T | 3.78
F1R | 3.36
F1N | 3.66
F1K | 3.56
F1G | 3.33
F1M | 3.32
F1W | 2.48
F1V | 2.83
R7Q | 2.55
R7H | 2.91
R7C | 1.82
R7T | 2.18
R7S | 1.37
R7I | 2.77
R7W | 2.33
R7M | 1.78
R7F | 2.83
R7K | 1.68
R7A | 2.02
R7P | 2.8
R7V | 2.04
R7D | 1.56
R7Y | 2.18

Variant | protein stability index
R7N | 1.7
R7G | 1.26
R7L | 3.54
R7E | 1.91
N9G | 1.38
N9Q | 2.07
N9F | 3.83
N9T | 2.13
N9M | 2.27
N9W | 2.12
N9I | 3.22
N9P | 2.4
N9K | 2.47
N9E | 2.15
N9Y | 2.58
N9A | 2.53
N9H | 4.14
N9C | 1.93
N9S | 2.41
N9L | 2.31
N9D | 1.8
N9V | 1.87
D13R | 1.48
D13H | 3.02

Variant | protein stability index
D13Q | 2.21
D13I | 1.63
D13V | 3.19
D13T | 2.27
D13A | 1.37
D13L | 1.47
D13P | 3.31
D13C | 2.36
D13K | 1.59
D13Y | 3.03
D13M | 1.03
D13E | 2.57
D13G | 2.6
D13S | 2.56
D13N | 1.77
H6F | 3.13
H6R | 1.99
H6V | 2.48
H6A | 2.42
H6C | 2.02
H6S | 1.85
H6L | 2.64
H6I | 1.55
H6D | 2.5

Variant | protein stability index
H6K | 2.57
H6G | 2.26
H6E | 1.76
H6M | 2.16
H6N | 1.33
H6P | 1.48
H6T | 1.58
H6Q | 1.42
D5E | 1.5
D5K | 3.58
D5N | 2.52
D5R | 3.46
D5I | 1.66
D5W | 2.86
D5V | 1.81
D5F | 2.45
D5A | 2.15
D5G | 1.34
D5T | 3.73
D5S | 2.75
D5P | 2.27
R3C | 3.82
R3L | 2.13
R3Y | 1.93

Variant | protein stability index
R3M | 1.57
R3N | 2.34
R3E | 2.73
R3G | 1.3
R3P | 1.44
R3Q | 1.71
R3D | 1.73
R3A | 1.63
R3H | 1.85
R3F | 1.69
R3I | 2.11
R3S | 1.99
R3W | 1.86
R3K | 1.45
R3V | 2.37
R3T | 2.13
V2W | 2.25
V2I | 1.92
V2M | 3.03
V2P | 2.85
V2D | 3.58
V2L | 3.03
V2T | 3.07
V2G | 3.03

Variant | protein stability index
V2R | 3.48
V2H | 2.37
V2E | 3.97
V2F | 2.61
V2S | 2.76
V2Y | 3.15
V2A | 1.66
V2N | 3.53
V2Q | 2.75
V2K | 3.1
V2C | 1.63
G4D | 3.02
G4T | 2.52
G4E | 1.76
G4I | 1.64
G4A | 2
G4V | 1.94
G4K | 1.57
G4L | 1.68
G4C | 2.67
G4N | 2.04
G4Y | 2.09
G4Q | 2.42
G4F | 2.06

Variant | protein stability index
G4P | 1.73
G4W | 1.94
G4H | 2.26
G4R | 1.56
G4S | 2.41
F12H | 1.99
F12S | 1.95
F12L | 1.72
F12W | 3.55
F12E | 1.82
F12D | 2.3
F12A | 1.91
F12N | 1.83
F12R | 1.84
F12Y | 2.89
F12K | 2.27
F12T | 2.39
F12G | 2.24
F12V | 1.94
F12Q | 1.8
F12P | 2.31
F12M | 2.08
F12I | 1.72
F12C | 2

Variant | protein stability index
G14A | 2.12
G14D | 2.25
G14F | 2.93
G14C | 2.99
G14E | 2.06
S10L | 1.83
S10R | 2.03
S10P | 2.84
S10K | 2.63
S10D | 1.35
S10Y | 1.71
S10T | 2.13
S10G | 1.3
S10V | 1.42
S10N | 1.38
S10I | 1.71
S10H | 1.51
S10Q | 1.6
S10M | 2.11
S10E | 1.53
S10F | 2.42
S10A | 2.32
S10C | 1.83
